Experimental data: patent US20250314643A1, “FLUORESCENT COMPLEXES COMPRISING TWO RHODAMINE DERIVATIVES AND A NUCLEIC ACID MOLECULE” (CENTRE NATIONAL DE LA RECHERCHE SCIENTIFIQUE, priority 2019, published 2025)

What was measured:
[1] = Fluorescence Correlation Spectroscopy (FCS) analysis of the fluoromodules; type: physicochemical
[2] = Fluorescence measurement on purified RNA (Gemini-561 activation capacity); type: biochemical; conditions: 500 nM RNA, 50 nM Gemini-561, ex/em 560/600 nm
Method: FIG. 6A represents Gemini-561 activation capacity of the parental SRB-2 and the evolved 4C10 variant. 500 nM of RNAs were incubated with 50 nM of Gemini-561 and the fluorescence was measured at À ex/em=560/600 nm.
FIG. 7A represents the fluorogenic capacity of SRB-2 and its evolved forms 4C10 and o-Coral. 500 nM of RNAS were incubated With 50 nM of Gemini-561 and the fluorescence was measured at X ex/em=560/600 nm. The values are the mean of 3 independent experiments, each measurement being shown as an open circle. The error bars correspond to ±1 standard deviation.
FIG. 10B represents Contribution of the dimerization and 736 the mutations to o-Coral functionality. SRB-2 aptamer was used as scaffold either in its monomeric 737 (m) or dimeric (d) form containing o-Coral linker. Indicated mutations were then implemented and the 738 different constructs tested as above.
FIG. 10C represents the identification of interacting regions. […]
1 μM purified RNA was heated for 1 min at 90° C. and cooled at 4° C. for 1 min. […] The mixture was then incubated for 10 min at 25° C. prior to measuring the fluorescence at 25° C. 011 a real-time thermocycler (ex/em 575/602 nm, MX 3005P, Agilent) or on microplate reader (ex/em 560/600 nm, SpectraMax iD3, Molecular Devices).

[3] = Affinity measurements (Kd, fluorescence titration of Gemini-561 with RNA); type: binding; conditions: for Kd: 40 mM potassium phosphate pH 7.5, 100 mM KCl, 1 mM MgCl2, 0.05% Tween 20, 100 nM (SRB-2) or 25 nM (4C10) Gemini-561
Method: The Kd value can be obtained by measuring the fluorescence intensity of the fluorophore in aqueous medium with increasing amount of the said nucleic acid. The plot of the fluorescence intensity versus the concentration of the said nucleic acid will provide the Kd value after fitting with the proper equation (example: Hill equation).
The fluorescence was measured on microplate reader (ex/em 580/620 nm, SpectraMax iD3, Molecular Devices).

## CN(C)c1ccc2c(-c3ccccc3C(=O)[O-])c3ccc(N(C)C)cc3[o+]c2c1 [Tetramethylrhodamine]
[1]; fluorogen 200 nM, aptamer 1 μM
  Size (hydrodynamic diameter of fluorescent specie): 1 nm
  τcorr (correlation time): 0.032 ms
[1]; standard tetramethylrhodamine for o-Coral (532 nm excitation), fluorescein for Broccoli and Corn
  Brightness with respect to one molecule of the standard: 1

B1: 4C10: duplicated SRB-2 variant RNA aptamer displaying 6 point mutations (nucleic acid)
chain: AGAACCCCGCUUCGGCGGUGAUGGAGAGGCGCAAGGUUAACCGCCUCAGGUUCCNNNNNNNNNNNNNNNNNNNNNNNNNNNNNNNNNNNNNNNNNNNNNNNNNNNNNNNNNNNNGGGGCCUCGCUUCGGCGAUGAUGGAGAGGCGCAAGGUUAACCGCCUCAGGUUCU
modifications: fluorophore binding aptamers; (55)..(72) N represents A, U, G or C; (73)..(114) N represents A, U, G or C or is absent
notes: duplicated SRB-2 variant RNA aptamer displaying 6 point mutations
[2]
  capacity to turn on Gemini-561 fluorescence: an order of magnitude more fluorescent
[3]
  Kd: ~73 nM

B2: SRB-2: parental RNA aptamer previously developed to interact with sulforhodamine B (nucleic acid)
chain: GGGAGACAGCUAGAGUACGGAACCUCGCUUCGGCGAUGAUGGACAGGUUCCGACACGAGCACAGUGUAC
modifications: listed as RNA, chemistry not given here
[2]
  capacity to turn on Gemini-561 fluorescence: poor
[3]
  Kd: ~441 nM

B3: o-Coral: light-up RNA aptamer, 4C10 derivative with 6-nucleotide long linker (nucleic acid)
chain: GGGAGACAGCUAGAGUACAGGAACCCCGCUUCGGCGGUGAUGGAGAGGCGCAAGGUUAACCGCCUCAGGUUCCGGUGACGGGGCCUCGCUUCGGCGAUGAUGGAGAGGCGCAAGGUUAACCGCCUCAGGUUCUGACACGAGCACAGUGUAC
modifications: fluorophore binding aptamers
notes: light-up RNA aptamer, 4C10 derivative with 6-nucleotide long linker
[3]; 6-nucleotide linker derivative of 4C10
  fluorogenicity and affinity for Gemini-561 compared with 4C10: conserved both fluorogenicity and affinity
